The target in assay [1] is T1, SH3 domain of Yes displayed on phage (UniProt P07947 91-152, limits assumed).
T1 construct: domain: SH3; also called Yes-SH3
Briefly: phage-ELISA on immobilised GST-K2.

In assay [2] the target is T2, SH3 domain of Abl displayed on phage (UniProt P00519 61-121, limits assumed).
T2 construct: domain: SH3; also called Abl-SH3
Briefly: phage-ELISA on immobilised GST-K2.

Assay [3] deals with T3, GST-Brk (full length GST-PTK6/Brk, SignalChem) (UniProt Q13882 1-451).
T3 construct: mature; Bought enzyme; also called full length Brk; GST-tagged Brk; not shown: glutathione S-transferase (GST) tag
Nature of the assay: immunoprecipitation with GST antibodies, p27 immunoblot. The text has this:
The reactions were probed by immunoblot analysis with pY88 and pY74 antibodies (FIG. 3C).

T1 sequence (P07947 91-152 limits assumed): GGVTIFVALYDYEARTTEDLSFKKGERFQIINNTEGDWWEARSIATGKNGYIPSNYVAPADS
T2 sequence (P00519 61-121 limits assumed): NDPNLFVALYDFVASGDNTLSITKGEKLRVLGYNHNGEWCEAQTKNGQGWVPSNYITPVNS

B1: GST-K2 (N-terminally GST-tagged p27 K2 PxxP peptide) (peptide)
chain: DVSGSRPAAPLIGAPA
notes: also called K2 peptide; K2 site; not shown: glutathione S-transferase (GST) tag of the pGEX-KG vector, N-terminal
As to B1, the binding result in assay [1] and in assay [2] was “no binding” in each case. Regarding RKWNFDFQNHKPLEGKYEWQEVEKGSLPEFYYRPPRPPKGACKVPAQES (not shown: Flag tag) [F58-106 (Flag tagged K1-site containing peptide, p27 residues 58 to 106)], the binding result in assay [3] was “binds”.
